# The DeepSol protein solubility set
# Assay: soluble on expression in E. coli; label from the status in PepcDB or PDB records
row,Sequence,soluble on expression in E. coli
1,MSLDETPTIHILWINAGLSCDGDSVALTAAMQPSIEEIVLGVLPGLPKIAVHWPLIDFECGPVGGSDTFIEWFFKGERGEIDPFVLVVEGSIPNESIKPEGYWCGFGDNPETGQPITTSEWIDRLAPKALAVVAIGTCATYGGIHAMAGNPTGAMGVPDYLGWDWKSQAGIPIVCVPGCPIQPDNFSETLTYLLYQAAGAAPMIPLDDKLRPTWLFGATVHEGCDRAGYYEQGQFALTYDSPKCLVKLGCWGPVVKCNVPKRGWMNGIGGCPNVGGICIACTMPGFPDKFMPFMDEPPGAKVSSSASGAYGAVVRKLRTLTARTVDKEPKWRHTGDRITTGYREGHHHHHH,not soluble
2,MVMIMRICIQPVGDVNDEILKFLKKKFGEVFGMCEILPKIDIPIYAYNFSRGQFNSTLILKSLPTVEDIVLGVTEVDIYADNLNFVFGEAELFGKRALISLARLRPEFYGLPPNKDVLKIRALKEAIHEIGHVLGLIHCENKRCVMSFSNSIIDVDLKDWRYCKKCLKKLQDRGIYISILEHHHHHH,not soluble
3,SIVLEPIYWNSSNSKFLPGQGLVLYPQIGDKLDIICPKVDSKTVGQYEYYKVYMVDKDQADRCTIKKENTPLLNCAKPDQDIKFTIKFQEFSPNLWGLEFQKNKDYYIISTSNGSLEGLDNQEGGVCQTRAMKILMKVGQDAS,soluble
4,SGIAVSDDCVQKFNELKLGHQHRYVTFKMNASNTEVVVEHVGGPNATYEDFKSQLPERDCRYAIFDYEFQVDGGQRNKITFILWAPDSAPIKSKMMYTSTKDSIKKKLVGIQVEVQATDAAEISEDAVSERAKKDVK,soluble
5,MGSDKIHHHHHHMYIEEIKRVLSDQRDVLEEKMSRKLVERDVPNLLKYLEVPNALAILGVRRSGKSTLSLLLLKRKKFAYVNFDDERFYNLNIGDLNKVLQAIYELYGVDVDYIVLDEIHNVKGWELFVSRLRDVKKLIITGSNSKMLSGELATYLTGRHSDYILFPFSFQEYLKYKEVKVEYFSTRVISTLKNELEKYTEVGGFPEALMLGKEQVNVIYNDILFKDIVSRYKIREIEKFREFARTVISYYSNEISLSSIAKILGLNKRTVEKWASGLREAYLTFFIPRYGEKLKQRLTYNKKVYVVDVGIVSNLAIKGKDKGRIIENLVAIKLLRELQGEEKLYYMRNNYEVDFYDEKNSRLIQVTYTSDKIENREIRGLIEGYRLTKAKKLLIITWDLEEKIQVEGVNIEVLPLYRFLLE,not soluble
6,MDAQGLRLITALKLCILATKKDGTPLYSDREQYIFSELYGLEGNEIQNMISLGDKLGLSRERIRQLKVKVFKKFGILRKRNIPAIIDIDNLLTNNHQINLDEVHNFACYLKKFQESHLSEYPIETLFDLAQLYFKQDYSIIKTWKREIKETSTIFPKKQNSQLTDITNKIIWFDHVKSWTLEEIHQITPHRNYDPNKKYLESEAGEFYSNKLQRNVFYESMLEKKFYKRLEKSHEVIYYVEQGITITYDRGKYTPDAIVFLDDGKGFVVEIKPLTEMANQSVQKKFKALLDFCEETGLGATLTDGRTDINHIFETIPNLAFEESILQSLKEFKKLTYGKVNELKNKYQVTTIHLLQCIIKNNLSYNSMPTFIWKTKKPIICDLLLSPENKMLLKGSTDIINNDKTLEHHHHHH,not soluble
7,MPSLLLLGAGHAHMTVMEAIPRLIERGHSVTVVGPGERHYYSGMGPGMLGGHYSPEDISFPVRQMVTQRGGTFITARATRIDPQRKHVVLDSGQELAYDVCSCNTGSHVPSSIVDGDATDVFPVKPIENLLAGRESIRRRASRGPVRIAVVGGGPAALEVAGNAAAALTQTGAQGNVAMYAGSSFLRRFPARVRELARKELQKARVKLHEGAYASAVHTGEVVLDNGERYEADIIFTALGVVPSPLFAASGLPVGKDGGLAVDAHLRCTEYDDIFGGGDCIWFTPQPLAKVGVYAVRQNPVLLHNLAARLEGGPLLTFSPGGEYLLIFNTGSGRGILHKAGFTFAGRLAFMVKDWIDRRFIRRFQPHLEHHHHHH,not soluble
8,MNMPLISIIMPVYNAECYLNQGILSCLNQSYQNIELILIDDGSTDKSIEIINNIIDKDKRVKLFFTPTNQGPAAARNIGLEKAQGDYITFLDSDDFIANDKLEKQLNFMLQNHLVMTHGNYAFCDLEGNQIKLVTTSKKIDYLTLLQGNQFKIMTVLVERESIKLLRFPNIKHEDYAFFLDCLKEVKQSILYSHQASSFVRIGKVSVSSNKFKSAIWTFNIYFKREKLGVVKSIYYFILYAYNGFIKYKK,not soluble
9,TALADVVITGYQTLSKERATGSFDKVDSSVLSSRPTADLSTALQGLVAGMQATEKEDGSIDFLIRGSSSLYADKKPLLVVDGFPIQGDFSSINPNDVESVTVLKDAAAASIWGARSANGVIVVTTKKGKKDK,not soluble
10,MIGYVLNGEHEEIPYGELMALLEIFNYNGSVERLKRYVITEDSPAKDIVKRSGYIDEGHRIIFRYNLEEKSVDLVDKIVNDFINSFKDFVANIDYPDIDESKSYAVRVLKLHKDEFTKSIDSLRIEKEIGGIIKLKTNAKVNLTKPDILVRVVILENTFFISNVLEMRDREYFQKNRPHLRKYFHPGCMLPKLARAMVNLARVKEGDIVLDPFCGTGGFLIEAGLIGAKLIGCDIDWRMASGTLINLEEYNLLDKVIKVKRLDAKYVKEFLNELNIEKVDAIVTDPPYGISTAKKGEIEKILETLPEVIKDNGYFVFAYPKKIELDMELEGLYKVYIHKGLIRHIHVYKKI,soluble
11,MRDNASLAHTQWNCKYHIVFVPKYRRQVIYGKIKKDIGQILRKLCEMKGVEIIEASLCPDHIHMLVSIPPKISVSSFMGYLKGKSSLMIFDRHANLKYKYGNRHFWCRGYYVDTVGRNRKAIEQYIRRQLQEDIASDQISLNEYIDPFTGERVNKSKK,soluble
12,MAMGRTTQFTLDEVAKHADKDSCWLVIDGKVYAVEKFLNEHPGGEDVLLETAGRDATREFEDVGHSKSAREQLKEFYIGDVREPTAEELAAKRAVQASAAAERRDGDGVRANGLGKERLFAGGAFGAEPLSGGSSTWTLLKRLFVPVCIAVLVYLVREYSKQVQTGG,not soluble
13,MIRKATWADAPAIASVHVESWKTTYSGIVPDAYLETLSVGEKQPLWEKVLSQSGHSVFVAEENGRVVGFVSGGPNRAADGPIAKYDGELYAIYLLKEVQGKGLGRQLVQALTRHLAQKGIHSLVVWVLADNPSRGFYERLGGEKVAEERVEIGGKALWEWCYELARRPIDGTVGGLPNRAAA,not soluble
14,MDVAGEKQQRKGEAIARIEAEKNAYTVAQLADEYFERMIAGRWKHPNIVRSRIEKDIKPAIGSLKVEDVKPRHIDDVLKAVMKRGAPSIANDTLRWLKRMFNYAIKRHIIEYNPAAAFLEHHHHHH,not soluble
15,RVAGSAIDYWRAGILGKRRVRVENHIVLLGWNGSRTMHLIRMLQHEEEGKRPIVLCSRSDIENPLPGEIHFIKVTSYTDAQEMKNANITDASCIIVDNLSDDITLSAALYCASVNPDAHLLAYFKDDALGRLLSQHCPKAECIPAVGAEMLAKAAVDPGSSALHQELLASTRGMTQYSVIYPENQPITTIESIFGFIKKRHHATLIAFDIGNGIQLNPDLDAEVPPGTKLFYIADERIDDFAWKEMNKEQ,not soluble
16,MYPKQFLKFGETSLFQETVLRCLEVSDISEVFVVTNEAQKFFVIGQIKEAGYSIPPENILIEPEGKNTLPAIFFGMKEIEKKFGDSIVGVFSSDHVLDRAAMATISSAENLASDYLVTFGVVPTFPHTGYGYIKASEACSPGYRVSEFREKPDFETAKKYIEEGCLWNSGMFLFETRLFFEEARKHAPSVYGCFEKEGDINQIYECVDNISIDYGIMEKSDKVAVVRLDHKWSDLGNFAAIYDELEKDSVGNVIHDCDPMLLNSDGNLVYSRCGKIVSLIDVKDMVVVDTSDALLICPKSSSQKVKEIVSELKGRKDERAFIGQTVYRPWGSYTLLDASPGHKIKNITVLSDHKLSLQLHYHRSEHWVVVKGMACVEVDGKQFFLGPGESTFIRAGQKHRLSNPGKLPLEIIEVQLGELVDEEDIVRFDDVYGRRLEHHHHHH,soluble
17,MNSPDRFRLTSCDVTPDRTGMFTAIWTCYGRLAPGWRVVFGIESGTDRLEIEAVADAGVCAPLPDGVADAWLICNGLLIAVLTPELGARLTGGSGYLRFSSSPPHDAVSSTPAHVHRAGIPPRG,not soluble
18,MSLKNGKIANIGLINYVDLGKIIIKAKEEGKTAVDFKAIEDIMPWDEFVSSINETSEITRPKEYNSLDLIAEKYSTLRKYTPRLLKILEFKASKKGEPVLKAMETIKELNANTKRKVPKGAPLDFVTNQWEKYVYDQEGNIDKKYYELAVFTELKNAVRSGDISIVGSKQHKPFEEYLITDSEWEKYKAENTDFKVSLDAEEYLKARLDLLNNKLKYVSDNIKKLKGVSIEDNKFVLSRLEKAVPDEAKELATKLYSLIPRVNLSDIIIDISKFTAFDNNLIHASTNKEPKDNERSCITASLMALGTNIGLKKMEQAVKGISYKQMSNVVNWRMSDDNMEKAMAAITNYHHRQPYAVHWGDGSTSSSDGVRVKSAVEALNASYNPHYGLEKGVTMYSAVSDQYSRFGVGIINTNSRDAIHIIDILLNHRTELEIEEHYTDTAGYTDQVFGLTHLLGFRFAPRLRDISDCKLYCIEGKEDFRNIQSVIKGKINTKIIKENYDDILKPVSSIKEGKVSGSLIMGKLGSYSRQNSLAKALTELGKIEKTIFILDYLSDEDFRRKIQIGLNKGEAMNALARAIFFGKYGMFHEKDIQGQLQRATALSIIINSITLWNTMYLPKAVEKLKEKEGVDESLLRHVSPLGWEHINFIGQYNLDDSSDYNLIDNMRPLREILQEGHHHHHH,not soluble
19,MDKVLNREESLQLMDLLGLERSAWGNIPLMRKAYLKKCKEFHPDKGGDEEKMKKMNTLYKKMEDGVKYAHQPDFGGFWDATEVFASSLNPGVDAIYCKQWPECVKKMSTNCICLLCLLRMKHENRKLYRKDPLVWVDCYCFDCFRMWFGLDLCEGTLLLWCDIIGQTTYRDLKL,soluble
20,MRKPKITVIGGGTGIPVILNSLRHEEVDITAIVTVADDGGSSGAIRHVMQLTPPGDLRNVLVAMSDMPKFYERIFQYRFNAEDGALAGHPLGNLIIAGISEMQGSTYNAMQILSKFFHTTGKIYPSSEKALTLHAVFQDGQEVVGESQIAKHKGMIDHVYVANSYDDAKPTASRKVVDAIMESDMIVLGPGSLFTSILPNLVIDEIGKALCETEAEVAYVCNIMTQYGETEHFTDADHVRVLNRHLGQNFIDTVLVNVEKVPQDYMNSNQFDEYLIQVEHDFAGLQEQVPRVVSSNFLCLENGGAFHNGKSVVDELMNLIKVKELLEHHHHHH,not soluble
21,VPLTVADIDRWNAQAVREVFHAASARAEVTFEASRQLAALSIFANSGGKTAEAAAHHNAGIRRDLDAHGNEALAVARAADRAADGIVKVQSELAALRHAAAAAELTIDALINRVVPIPGLRSTEAQWARTLAKQTELQAELDAIMAEANAVDEELASAVNMADGDAPIPADSGPPVGPEGLTPTQLASDANEERLREERARLQAHLERLQAEYDQLSVRAARDYHNGILDGDAVGRLAALTDELSAARGRLGELDAVDEALSRAPETYLTQLQIPEDPNQQVLAAVAVGNPDTAANVSVTVPGVGSTTRGALPGMVTEARDLRSEVIRQLNAAGKPASVATIAWMGYHPPPNPLDTGSAGDLWQTMTDGQAHAGAADLSRYLQQVRANNPSGHLTVLGHSYGSLTASLALQDLDAQSAHPVNDVVFYGSPGLELYSPAQLGLDHGHAYVMQAPHDLITNLVAPLAPLHGWGLDPYLTPGFTELSSQAGFDPGGIWRDGVYAHGDYPRSFLDAAGQPQLRMSGYNLAAIAAGLPDNTVGPPLLPPILGGGMPAAPGPALRGGR,not soluble
